One experiment concerns the target HLA-B*15:17. In words: IEDB peptide-MHC binding, purified MHC/direct/fluorescence; filed as Kd, often an IC50 or EC50 that approximates it; ≥ and ≤ were set here for values at or beyond the usual limits of such assays.
The next experiment concerns the target HLA-B*57:01. Described as above.
The target of another experiment is HLA-B*58:01. Described as above.
Another experiment has as its target HLA-B*15:03. In words: IEDB peptide-MHC binding, purified MHC/competitive/radioactivity; filed as Kd, often an IC50 or EC50 that approximates it; ≥ and ≤ were set here for values at or beyond the usual limits of such assays.
The next experiment addresses HLA-A*32:01. The description is as above.
Experiment [1] has as its target HLA-B*15:01. The experiment is described as above.
For a further experiment, the target named is HLA-B*27:05. Put plainly: IEDB peptide-MHC binding, purified MHC/direct/fluorescence; filed as Kd, often an IC50 or EC50 that approximates it; ≥ and ≤ were set here for values at or beyond the usual limits of such assays.
For experiment [2], the target named is HLA-A*02:01. Described as above.
In experiment [3] the target is HLA-B*07:02. Described as above.
Experiment [4] deals with HLA-A*11:01. Described as above.
The target in experiment [5] is HLA-B*15:01. The description is as above.
The target in the next experiment is HLA-B*44:02. The experiment is described as above. The conditions noted are these: source organism: Vibrio cholerae.
The next experiment deals with HLA-A*01:01. The experiment is described as above.
Experiment [6] addresses HLA-B*08:01. Described as above.
The next experiment addresses HLA-A*26:01. Described as above.
A further experiment addresses HLA-A*69:01. Described as above.
Experiment [7] has as its target HLA-A*03:01. Described as above.
The target in another experiment is HLA-B*40:01. Described as above.
Another experiment deals with HLA-A*24:03. The description is as above.
The next experiment addresses HLA-A*30:01. Put plainly: IEDB peptide-MHC binding, purified MHC/competitive/radioactivity; filed as Kd, often an IC50 or EC50 that approximates it; ≥ and ≤ were set here for values at or beyond the usual limits of such assays. The following applies: source organism: Vaccinia virus WR.
Experiment [8] addresses HLA-B*08:01. The experiment is described as above. The following applies: source organism: Vaccinia virus WR.
A further experiment has as its target HLA-A*24:02. The description is as above. The conditions noted are these: source organism: Mammarenavirus juninense.
The target in another experiment is HLA-A*29:02. The experiment is described as above. The conditions noted are these: source organism: Mammarenavirus juninense.
The next experiment concerns the target HLA-A*23:01. The experiment is described as above. The conditions noted are these: source organism: Mammarenavirus juninense.
Experiment [9] addresses HLA-B*07:02. Described as above.
The target of experiment [10] is HLA-A*11:01. The description is as above.
In a further experiment the target is HLA-B*35:01. The experiment is described as above.
Another experiment concerns the target HLA-A*31:01. The description is as above.
In another experiment the target is HLA-B*53:01. The experiment is described as above.
In a further experiment the target is HLA-B*51:01. The description is as above.
Another experiment concerns the target HLA-B*54:01. The description is as above.
The next experiment concerns the target HLA-A*68:01. The experiment is described as above.
The target of experiment [11] is HLA-A*03:01. Described as above.
In the next experiment the target is HLA-A*33:01. The experiment is described as above.
In experiment [12] the target is HLA-A*02:01. In words: IEDB peptide-MHC binding, purified MHC/competitive/fluorescence; filed as Kd, often an IC50 or EC50 that approximates it; ≥ and ≤ were set here for values at or beyond the usual limits of such assays. The following applies: source organism: Vaccinia virus Copenhagen.
The mark [13] stands for this setting: source organism: Marburg virus - Musoke, Kenya, 1980.
Where [14] appears, read: source organism: Vaccinia virus WR.
[15] abbreviates: source organism: Vaccinia virus Copenhagen.
The mark [16] stands for this setting: source organism: Vibrio cholerae.
The mark [17] stands for this setting: source organism: Brucella melitensis.
The mark [18] stands for this setting: source organism: Haemophilus influenzae.
Where [19] appears, read: source organism: Mammarenavirus lassaense.
Setting [20] is: source organism: Lake Victoria marburgvirus - Popp.

As usually defined, the Kd is the constant that tells how readily two partners part at equilibrium.

As to SSNAKNSEW, the values for the Kd with HLA-B*15:17 (setting [13]), with HLA-B*57:01 (setting [13]) and with HLA-B*58:01 (setting [13]) were 2.7 nM, 135 nM and 69.9 nM, respectively.
For LPVYFGSVF, the equilibrium dissociation constant (Kd) with HLA-B*15:03 (setting [14]) was 123 nM.
With ILMIFISSF, the Kd was found to be 86.7 nM with HLA-A*32:01 (setting [14]) and 11.9 nM with HLA-B*15:03 (setting [14]).
FAAMIIRSF: the Kd with HLA-B*15:03 (setting [14]) was 1.33 nM.
With SATYATVPF, in the experiment with HLA-B*15:03 (setting [15]), the Kd worked out at 12 nM.
With FYSSFVQTF, the Kd in the experiment with HLA-B*15:03 (setting [14]) was determined as 38.8 nM.
Regarding LQNSVVLQF, the Kd in the experiment with HLA-A*32:01 (setting [15]) came out at 7.33 nM; with HLA-B*15:01 [1] (setting [15]) it was 1.51 nM; in the experiment with HLA-B*15:03 (setting [15]), 6.22 nM.
Take AYLLQHLDL: the Kd in the experiment with HLA-B*27:05 (setting [16]), with HLA-A*02:01 [2] (setting [16]), in the experiment with HLA-B*07:02 [3] (setting [16]), in the experiment with HLA-A*11:01 [4] (setting [16]), in the experiment with HLA-B*15:01 [5] (setting [16]) and with HLA-B*44:02 was at least 20000 nM in each case. Moreover, the Kd with HLA-A*01:01 (setting [16]), in the experiment with HLA-B*08:01 [6] (setting [16]), in the experiment with HLA-A*26:01 (setting [16]), with HLA-B*58:01 (setting [16]), in the experiment with HLA-A*69:01 (setting [16]) and with HLA-A*03:01 [7] (setting [16]) was at least 20000 nM in each case. For the same sequence, the Kd with HLA-B*40:01 (setting [16]) was at least 20000 nM; in the experiment with HLA-A*24:03 (setting [16]), 1.53 nM.
As for LSVPAAIMM, in the experiment with HLA-B*15:03 (setting [14]), the Kd came to 68.5 nM.
Turning to KAGVRGWFL, the Kd with HLA-B*15:17 (setting [17]) stood at 2280 nM; with HLA-B*57:01 (setting [17]) it was 71.5 nM; with HLA-B*58:01 (setting [17]), 225 nM.
Turning to FQTVNFNNA, the Kd in the experiment with HLA-A*32:01 (setting [14]) was at least 50900 nM; with HLA-B*15:01 [1] (setting [14]) it was 8180 nM; with HLA-A*30:01, 115 nM; with HLA-B*08:01 [8] it was 16000 nM; with HLA-B*15:03 (setting [14]), 305 nM.
As for VLFLQQSIF, in the experiment with HLA-B*15:03 (setting [14]), the Kd is 0.61 nM.
Turning to VYFSPWFFL, the Kd with HLA-B*27:05 (setting [18]), with HLA-A*02:01 [2] (setting [18]), in the experiment with HLA-B*07:02 [3] (setting [18]), with HLA-A*11:01 [4] (setting [18]), in the experiment with HLA-B*15:01 [5] (setting [18]) and in the experiment with HLA-A*01:01 (setting [18]) was at least 20000 nM in each case. The Kd with HLA-B*08:01 [6] (setting [18]), with HLA-A*26:01 (setting [18]), in the experiment with HLA-B*58:01 (setting [18]), with HLA-A*69:01 (setting [18]), with HLA-A*03:01 [7] (setting [18]) and in the experiment with HLA-B*40:01 (setting [18]) was at least 20000 nM each time. The Kd with HLA-A*24:03 (setting [18]) is 19.7 nM.
Take KSSLNISGY: the Kd with HLA-B*15:17 (setting [19]) was determined as 1.6 nM; in the experiment with HLA-B*57:01 (setting [19]), 574 nM; with HLA-B*58:01 (setting [19]), 37.7 nM.
LYTVKYPNL: the Kd in the experiment with HLA-A*24:03 (source organism: Mammarenavirus machupoense) was 30.1 nM; with HLA-A*24:02, 2430 nM; with HLA-A*29:02, at least 23500 nM; with HLA-A*23:01, 230 nM.
ILMIFISSFL: the Kd was 16800 nM in the experiment with HLA-B*07:02 [9] (setting [14]); 1780 nM with HLA-A*11:01 [10] (setting [14]); 3050 nM with HLA-B*35:01 (setting [14]); 625 nM with HLA-A*31:01 (setting [14]); 1250 nM with HLA-B*53:01 (setting [14]); 4910 nM with HLA-B*51:01 (setting [14]). In addition, the dissociation constant Kd in the experiment with HLA-B*54:01 (setting [14]) is 1500 nM; in the experiment with HLA-A*68:01 (setting [14]), 989 nM; with HLA-A*03:01 [11] (setting [14]) it was 397 nM; with HLA-A*33:01 (setting [14]) it was 966 nM.
As to IQHNFTQIA, the Kd with HLA-B*15:03 (setting [14]) turned out to be 0.251 nM.
Consider MTVVSAVHF, for which the values for the equilibrium dissociation constant (Kd) with HLA-A*32:01 (setting [14]) and with HLA-B*15:03 (setting [14]) were 1940 nM and 278 nM, respectively.
As for NLYSFTIVF, the Kd in the experiment with HLA-B*15:03 (setting [15]) is 31.2 nM.
For the sequence RAYSVPETF, the figures for the equilibrium dissociation constant (Kd) with HLA-B*15:17 (setting [17]), in the experiment with HLA-B*57:01 (setting [17]) and in the experiment with HLA-B*58:01 (setting [17]) were at most 1 nM, 41.8 nM and 14.5 nM, respectively.
In the case of FLIVSLCPT, the Kd is 0.3 nM with HLA-A*02:01 [12]; 12000 nM with HLA-B*07:02 [9] (setting [15]); at least 48100 nM in the experiment with HLA-A*11:01 [10] (setting [15]); 16000 nM with HLA-B*35:01 (setting [15]); 3230 nM in the experiment with HLA-A*31:01 (setting [15]); 6210 nM with HLA-B*53:01 (setting [15]). Moreover, the Kd is at least 28600 nM with HLA-B*51:01 (setting [15]); 359 nM in the experiment with HLA-B*54:01 (setting [15]); 5310 nM with HLA-A*68:01 (setting [15]); 2590 nM in the experiment with HLA-A*03:01 [11] (setting [15]); 6550 nM with HLA-A*33:01 (setting [15]).
For KWKYENPCK, the Kd with HLA-A*32:01 (setting [14]) was at least 59000 nM; in the experiment with HLA-B*15:01 [1] (setting [14]), at least 78100 nM; with HLA-A*30:01, 15 nM; with HLA-B*08:01 [8], at least 50900 nM; with HLA-B*15:03 (setting [14]) it was 296 nM.
Regarding KSPDVHEDF, the results for the Kd with HLA-B*15:17 (setting [20]), with HLA-B*57:01 (setting [20]) and with HLA-B*58:01 (setting [20]) were at least 20000 nM, 566 nM and 921 nM, respectively.
For FQRKPFNNI, the Kd in the experiment with HLA-B*15:03 (setting [14]) worked out at 8.9 nM.
Turning to KTKETNRIY, the Kd worked out at 10.7 nM with HLA-A*30:01 and 172 nM in the experiment with HLA-B*15:03 (setting [14]).

(Values after the Immune Epitope Database (IEDB).)
